Laboratory results from patent US6525022B1, “Receptor specific atrial natriuretic peptides” (Genentech, Inc., priority 1993, dated 2003).
Bridges are numbered along the chain shown (N, C = ends). Where no end group is shown, it is not given here. [ ]: non-standard residue; d: D form. Mpa = O=C(O)CCS

Experiments:
[1] = target: T1, human natriuretic peptide clearance receptor-C (human), P17342; assay: competition binding, Table I; tracer and receptor format not given
T1 chain: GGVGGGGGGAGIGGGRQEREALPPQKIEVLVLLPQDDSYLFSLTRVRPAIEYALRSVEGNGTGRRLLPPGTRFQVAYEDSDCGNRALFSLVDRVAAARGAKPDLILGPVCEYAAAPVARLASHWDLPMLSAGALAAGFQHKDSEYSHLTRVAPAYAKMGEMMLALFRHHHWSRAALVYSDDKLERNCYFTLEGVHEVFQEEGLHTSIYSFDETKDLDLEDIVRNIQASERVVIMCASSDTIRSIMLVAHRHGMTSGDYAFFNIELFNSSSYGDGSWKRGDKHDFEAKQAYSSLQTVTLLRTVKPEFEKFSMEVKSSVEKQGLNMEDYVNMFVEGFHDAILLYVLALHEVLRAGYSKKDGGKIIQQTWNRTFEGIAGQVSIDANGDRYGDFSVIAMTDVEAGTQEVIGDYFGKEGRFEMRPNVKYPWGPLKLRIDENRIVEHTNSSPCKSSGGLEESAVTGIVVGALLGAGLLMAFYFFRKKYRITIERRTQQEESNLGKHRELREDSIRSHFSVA

[2] = target: T2, human natriuretic peptide receptor-A (human), P16066; assay: as above
T2 chain: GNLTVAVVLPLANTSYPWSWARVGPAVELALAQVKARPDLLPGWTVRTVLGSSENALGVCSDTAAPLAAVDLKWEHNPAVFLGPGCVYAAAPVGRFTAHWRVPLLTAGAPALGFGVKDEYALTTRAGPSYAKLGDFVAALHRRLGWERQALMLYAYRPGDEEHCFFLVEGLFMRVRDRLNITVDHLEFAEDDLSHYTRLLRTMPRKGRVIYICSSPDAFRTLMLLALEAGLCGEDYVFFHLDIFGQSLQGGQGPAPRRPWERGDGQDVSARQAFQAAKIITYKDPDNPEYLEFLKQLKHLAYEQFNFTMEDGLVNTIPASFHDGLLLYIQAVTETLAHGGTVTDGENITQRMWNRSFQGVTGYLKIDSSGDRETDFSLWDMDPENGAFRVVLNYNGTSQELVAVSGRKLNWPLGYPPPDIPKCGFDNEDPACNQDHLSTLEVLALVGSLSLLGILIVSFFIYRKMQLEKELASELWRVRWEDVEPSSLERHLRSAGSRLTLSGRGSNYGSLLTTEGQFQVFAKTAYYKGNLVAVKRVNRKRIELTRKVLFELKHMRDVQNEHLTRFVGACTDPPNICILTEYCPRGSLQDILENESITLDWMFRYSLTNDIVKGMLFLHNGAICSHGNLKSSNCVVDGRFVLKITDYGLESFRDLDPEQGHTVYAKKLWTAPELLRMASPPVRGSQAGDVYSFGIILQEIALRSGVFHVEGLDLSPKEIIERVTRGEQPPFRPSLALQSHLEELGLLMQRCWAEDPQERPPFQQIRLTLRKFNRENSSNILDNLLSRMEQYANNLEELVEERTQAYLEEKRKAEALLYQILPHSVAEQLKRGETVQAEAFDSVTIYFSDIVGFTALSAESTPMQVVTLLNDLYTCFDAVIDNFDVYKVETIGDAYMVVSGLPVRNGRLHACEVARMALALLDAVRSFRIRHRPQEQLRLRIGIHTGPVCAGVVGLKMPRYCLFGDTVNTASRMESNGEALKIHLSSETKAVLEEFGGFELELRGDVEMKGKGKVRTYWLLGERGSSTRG

[3] = target: T3, human neutral endopeptidase 24.11 (human), P08473; assay: cell-based or functional assay
T3 chain: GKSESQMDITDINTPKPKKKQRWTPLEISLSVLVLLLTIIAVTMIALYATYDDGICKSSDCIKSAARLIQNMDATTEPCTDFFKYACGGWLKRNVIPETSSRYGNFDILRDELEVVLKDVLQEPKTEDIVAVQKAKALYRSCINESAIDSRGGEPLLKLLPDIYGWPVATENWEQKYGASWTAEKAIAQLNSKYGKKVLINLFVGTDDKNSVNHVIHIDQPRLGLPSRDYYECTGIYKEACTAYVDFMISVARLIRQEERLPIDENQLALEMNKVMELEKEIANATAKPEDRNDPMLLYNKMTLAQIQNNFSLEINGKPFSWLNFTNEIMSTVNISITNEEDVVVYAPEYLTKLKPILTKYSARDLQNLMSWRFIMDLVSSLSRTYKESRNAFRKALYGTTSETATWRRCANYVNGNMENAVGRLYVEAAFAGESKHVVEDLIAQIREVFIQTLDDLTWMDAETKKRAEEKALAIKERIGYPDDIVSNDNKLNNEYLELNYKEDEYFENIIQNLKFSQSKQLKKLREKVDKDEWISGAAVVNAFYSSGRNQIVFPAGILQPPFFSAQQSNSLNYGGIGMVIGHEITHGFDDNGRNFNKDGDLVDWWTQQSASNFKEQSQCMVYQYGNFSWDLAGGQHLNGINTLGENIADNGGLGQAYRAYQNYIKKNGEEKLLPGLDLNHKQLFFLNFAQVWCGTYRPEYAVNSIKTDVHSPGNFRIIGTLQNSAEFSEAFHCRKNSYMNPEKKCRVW

[4] = target: human neutral endopeptidase 24.11 (human, UniProt P08473 2-750, limits assumed); assay: cell-based or functional assay
[5] = target: T4, human natriuretic peptide receptor-A (human, UniProt P16066 33-1061); assay: competition binding, Table I; tracer and receptor format not given
T4 construct: whole, on cells; also called hNPR-A; human NPR-A
T4 sequence (looked up): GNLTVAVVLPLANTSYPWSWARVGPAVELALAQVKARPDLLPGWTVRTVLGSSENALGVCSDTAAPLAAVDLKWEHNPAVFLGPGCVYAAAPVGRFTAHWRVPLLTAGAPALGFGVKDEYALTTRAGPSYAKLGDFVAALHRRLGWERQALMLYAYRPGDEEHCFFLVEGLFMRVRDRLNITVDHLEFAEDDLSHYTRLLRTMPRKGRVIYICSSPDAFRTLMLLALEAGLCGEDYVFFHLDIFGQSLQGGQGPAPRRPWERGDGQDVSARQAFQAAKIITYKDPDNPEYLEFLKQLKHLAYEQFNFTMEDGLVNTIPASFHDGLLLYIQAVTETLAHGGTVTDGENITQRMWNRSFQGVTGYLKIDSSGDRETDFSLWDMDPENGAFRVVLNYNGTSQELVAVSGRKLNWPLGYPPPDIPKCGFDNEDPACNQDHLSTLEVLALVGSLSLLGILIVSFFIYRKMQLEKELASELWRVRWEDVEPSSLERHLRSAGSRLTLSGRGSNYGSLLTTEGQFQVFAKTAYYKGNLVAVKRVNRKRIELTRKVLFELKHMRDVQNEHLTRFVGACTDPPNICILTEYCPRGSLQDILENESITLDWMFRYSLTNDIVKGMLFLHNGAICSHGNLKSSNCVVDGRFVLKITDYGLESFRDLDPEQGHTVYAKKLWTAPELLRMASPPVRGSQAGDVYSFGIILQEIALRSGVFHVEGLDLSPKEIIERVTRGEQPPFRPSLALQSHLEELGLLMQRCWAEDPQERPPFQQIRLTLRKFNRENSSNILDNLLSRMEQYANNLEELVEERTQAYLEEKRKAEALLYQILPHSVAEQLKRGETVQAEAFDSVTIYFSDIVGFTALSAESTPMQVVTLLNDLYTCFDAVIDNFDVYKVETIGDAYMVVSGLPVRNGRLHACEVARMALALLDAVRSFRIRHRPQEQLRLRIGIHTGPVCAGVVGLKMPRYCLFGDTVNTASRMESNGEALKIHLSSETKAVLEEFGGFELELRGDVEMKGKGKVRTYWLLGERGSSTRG

[6] = target: T5, human natriuretic peptide clearance receptor-C (human, UniProt P17342 27-541); assay: as above
T5 construct: whole, on cells; also called hNPR-C; human NPR-C
T5 sequence (looked up): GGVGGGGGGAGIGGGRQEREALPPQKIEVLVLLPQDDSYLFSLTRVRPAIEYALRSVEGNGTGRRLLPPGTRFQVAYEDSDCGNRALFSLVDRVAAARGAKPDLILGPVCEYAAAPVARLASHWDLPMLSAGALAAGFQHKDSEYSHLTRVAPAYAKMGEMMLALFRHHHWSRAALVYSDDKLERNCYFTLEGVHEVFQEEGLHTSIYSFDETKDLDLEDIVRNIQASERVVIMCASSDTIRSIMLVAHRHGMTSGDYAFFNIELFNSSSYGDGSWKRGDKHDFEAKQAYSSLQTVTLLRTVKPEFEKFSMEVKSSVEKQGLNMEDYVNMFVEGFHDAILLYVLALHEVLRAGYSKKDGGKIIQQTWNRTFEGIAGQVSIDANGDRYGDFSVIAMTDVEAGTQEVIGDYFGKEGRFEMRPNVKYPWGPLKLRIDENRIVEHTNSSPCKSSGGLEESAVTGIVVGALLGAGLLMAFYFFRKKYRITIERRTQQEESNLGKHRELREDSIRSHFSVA

| Binder | IC50 [1] | Half-Life [3] | further results |
| --- | --- | --- | --- |
| SLRRSSCFGKSMDRIGAQSGLGCNSFRY (modifications not checked) [ANF 60] | 5.98 nM | 5.07 h | IC50 [2]: 0.112 nM |
| [Mpa]F[dA]GDIDRIRAQSGLGCNSFRY (ends and bridges not checked) [ANF 92] |  |  | Half-Life [4]: 1.77 h |
| SLRRSSCF[dA]GDIDRIRAQSGLGCNSFRY (disulfide 7-23, Cys7-Cys23 disulfide; also called hANF(1-28) G9(d-Ala), R11D, M12I, G16R) [ANF 90] |  |  | IC50 [5]: 1.2 nM; IC50 [6]: 6140 nM |
| SLRRSSCFGGRMDRIGAQSGLGCNSFRY (modifications not checked) [hANF(1-28), wild-type human atrial natriuretic factor] |  | 2.27 h |  |
| SLRRSSCFTGSIDRIRAQSGLGCNSFRY (modifications not checked) [ANF 27] | 1000 nM | 5.57 h |  |
